The RNAGym collection of RNA variant scans (doi:10.7554/elife.80360)

B1: Hairpin Ribozyme (parent)
chain: GUCCUCUUUCACGUGCGCGUGAAAGAGAGAAGUGAACCAGAGAAACACACGUUGUGGUAUAUUACCUGGUA

Variants of: B1
Experiment: self-cleavage, relative activity (ratio to wild type); higher = more cleavage; co-transcriptional

Variant | self-cleavage
G34U U55C | 1.36
U33G A43U | 0.0768
U33G A43C | 0.0935
A36C A64G | 0.281
A35G C66U | 0.553
A35G A39C | 0.257
G34U A49G | 1.49
G34U A49U | 1
G34U A49C | 0.433
A36C A61U | 0.162
G34U G42U | 1.17
U33G U55G | 0.0574
U33G U55A | 0.11
U33G A71G | 0.184
A35C A36U | 0.606
A35C A36G | 0.683
G34A A44U | 0.113
G34A A35C | 1.43
G34A A35G | 1.1
A35C A39G | 0.591
A35C A39C | 0.226
A36C U63A | 0.0749
G34C A41G | 1.31
G34C A41C | 1.47

Variant | self-cleavage
A35C U58A | 0.841
A35C U58G | 0.954
G34A G68U | 0.325
G34C G68A | 0.723
A35C G40C | 0.184
G34C A35U | 1.61
A36C A59C | 0.0815
A35U G56C | 0.124
A35C G68C | 0.145
A35C G68A | 0.279
G34U G69C | 0.759
G34U G69U | 1.1
G34C G42C | 0.907
G34C G42A | 0.968
G34A G51C | 1.15
G34A G51A | 1.28
A35C C48U | 0.101
G34C G69U | 0.729
A36C G42C | 0.245
G34A C50G | 0.481
G34C C48U | 0.572
G34C C48A | 0.411
A35G G51U | 0.949
A35G G51A | 0.964

Variant | self-cleavage
A36C A39C | 0.216
G34C C50A | 1.1
U33C G57A | 0.242
G34U G56A | 0.788
A35G A49U | 0.174
G34C A49C | 0.186
G34C A49U | 0.743
G34U C50G | 1.12
G34U C50U | 0.913
U33C G40A | 0.0908
U33C G40U | 0.121
A36C C65G | 0.3
A35G U60A | 1.11
A35U A43C | 0.0178
G34A U62A | 0.315
G34U A44U | 0.205
G34U A44G | 0.348
A35G C38G | 0.129
A35G C38U | 0.371
A35U C37U | 0.457
A35U C37A | 0.406
A35C U53A | 0.995
A35C U53C | 0.835
A35C C38A | 0.201

Variant | self-cleavage
G34C G57A | 0.427
G34C G57U | 0.96
G34U A41G | 0.857
G34U A41C | 1.55
A35U U70A | 0.703
A35U U70C | 0.702
A35U A64C | 0.143
A35U A59C | 0.302
G34A G42U | 0.406
A35C G56C | 0.196
A35U G68C | 0.206
A35U G68U | 0.177
A35U A71C | 1.57
G34U A36U | 1.52
G34U A59C | 0.27
A35G G42C | 0.231
A35G G42A | 0.174
G34U C46U | 0.102
G34U C46G | 0.397
G34A C37A | 0.534
G34A G57A | 0.207
A35G C46G | 0.0878
A35G C46U | 0.145
U33G A41G | 0.0864

Variant | self-cleavage
A35G G68U | 0.208
G34U G68A | 1.17
A36G A39C | 0.218
G34A A64G | 0.625
A35C A45U | 0.0921
A35C A45G | 0.083
G34U A39U | 1.14
G34U A39G | 1.15
A36C C37G | 0.215
A35C A41U | 1.35
A35C A49U | 0.119
A35U U60A | 0.426
U33G G56A | 0.221
G34A U63C | 0.0965
G34U C38A | 0.658
A36G A41U | 1.31
G34U G54U | 1.26
G34U G54C | 1.15
A35C A71C | 1.27
A35U C65G | 0.204
A35U C65U | 0.223
A35U G57A | 0.193
A36C G56U | 0.216
A36C G56A | 0.09

Variant | self-cleavage
A36C G56C | 0.186
A36C U53G | 0.371
A36C U53A | 0.635
G34U A45G | 0.472
U33G A36U | 0.129
G34A U70G | 0.979
A35C G51U | 1.24
A35U G51C | 0.484
A35U G51A | 0.965
A35U G51U | 0.794
A35C U70A | 0.805
A35C U70G | 0.676
A36C G57U | 0.264
G34C A71G | 1.66
U33C U67C | 0.129
U33C U67A | 0.119
U33G G42U | 0.153
A35G U58G | 0.881
G34A C65U | 0.673
U33C G51U | 0.144
U33C G51A | 0.231
A35G U55G | 0.283
G34A A41C | 0.826
G34C A45C | 0.0204

Variant | self-cleavage
U33G C50A | 0.123
U33G C50U | 0.14
G34A G54A | 0.745
G34A G54C | 0.302
A35C A61G | 0.234
A35C A61C | 0.151
A36C U70C | 0.607
A36C G69C | 0.304
G34U A35U | 1.44
U33C U63C | 0.187
A35G G57A | 0.222
A35G G57U | 0.205
U33G C46G | 0.174
G34U A64U | 0.883
G34C G56A | 0.737
G34C G56C | 0.37
G34C G56U | 0.331
A35C G57U | 0.318
A35C G57C | 0.134
U33C G34C | 1.28
G34C G54A | 1.2
A35C U55C | 0.0658
G34C U55A | 1.16
G34C U55G | 1.19

Variant | self-cleavage
A35G A59C | 0.104
G34A A71U | 1.02
A36C A43U | 0.126
A36C A43C | 0.07
G34C C66G | 0.627
G34C C66U | 1.29
U33G A35G | 0.126
G34U U52A | 1.5
A36C C50U | 0.222
G34C C46U | 0.109
A35G C37A | 0.416
A35G C37G | 0.422
U33G U53A | 0.138
U33G C37A | 0.109
U33G C37U | 0.267
U33G C37G | 0.064
U33G A61C | 0.041
U33C G68U | 0.258
U33C G68A | 0.104
A35G G40C | 0.175
G34C A36C | 1.25
G34C A36U | 0.938
A36C G68A | 0.193
A36C G68U | 0.213

Variant | self-cleavage
A36C G68C | 0.153
G34C U52A | 1.66
G34A C48G | 0.17
G34A C48A | 0.122
A35U U53C | 1.04
A35U U53G | 0.429
G34C U60A | 1.16
G34C U60G | 0.828
G34C U60C | 1.41
A35G U53C | 0.928
A35G U53G | 0.955
G34A A61U | 0.218
A35U C46G | 0.146
U33C G69A | 0.0835
U33C G69C | 0.114
A35G A45U | 0.25
A35G A36U | 0.695
A35G A36C | 0.495
A36C A45U | 0.124
U33G U70G | 0.111
A35C A64C | 0.211
A35C A64G | 0.513
A35C C46G | 0.0823
U33C U53A | 0.198

Variant | self-cleavage
U33G A49G | 0.135
U33G A49C | 0.114
G34A U67A | 0.194
A35U C66G | 0.0865
A35U C66U | 0.151
G34U U70G | 1.48
G34U U62A | 0.981
A35U U62A | 0.158
G34C U62A | 0.471
G34C U62G | 0.175
A35C C66A | 0.293
A35C C66G | 0.159
U33C U52A | 0.162
U33C U52G | 0.1
G34A U53A | 1.46
G34A U53C | 1.13
A36C A41G | 0.894
A36C A71G | 0.303
G34U C48G | 0.371
G34U C48A | 0.497
G34U G57U | 1.28
A35G C65U | 0.227
A35G C65G | 0.221
U33G G34U | 0.0449

Variant | self-cleavage
A35G G54A | 0.477
A35U U58C | 0.798
A35U U58G | 0.553
A35U G40U | 0.134
A35U U63C | 0.152
A36C U55A | 0.243
A36C U55G | 0.174
G34U G51C | 1.49
A35C U52G | 0.728
A35C U52C | 1.05
A35C U67C | 0.217
G34U C66G | 0.548
G34U C66A | 1.02
G34U C66U | 1.31
G34A G40U | 0.198
G34A G40A | 0.407
G34U C65U | 1.3
G34U C65A | 1.57
U33G G51A | 0.118
A36C U58C | 0.685
A36C U58A | 0.391
A35U A61C | 0.265
A35G A64U | 0.129
A36C C66G | 0.131

Variant | self-cleavage
G34C A44U | 0.119
G34C A44G | 0.264
A35C A44C | 0.0528
A35C A44U | 0.216
G34U U53G | 1.58
G34U U53C | 0.405
G34U U53A | 1.46
U33C G56U | 0.26
G34A C38U | 0.655
A35C A47C | 0.564
A35G U52A | 1.02
G34U G40U | 0.7
G34U A43G | 0.125
G34C U67C | 0.785
G34A A39C | 0.456
G34A A39G | 0.768
G34A A39U | 0.304
G34C U53A | 0.963
G34C U53C | 1.36
G34C U53G | 1.03
G34A U52G | 1.09
G34C G40C | 0.188
A35U C38U | 0.216
A35U C38A | 0.135

Variant | self-cleavage
A35C C37G | 0.282
A36C A44U | 0.307
A36C A44G | 0.157
A36C A44C | 0.122
U33C G42A | 0.0915
U33G A39G | 0.119
U33G A39U | 0.0926
A36C A49U | 0.203
U33G G57U | 0.2
G34C A61G | 0.636
G34A C46A | 0.198
U33G U67G | 0.0324
A35C U63A | 0.13
U33G A64G | 0.108
A35U A49G | 0.31
G34C G51C | 1.44
A35C A59C | 0.258
A35G G56A | 0.108
A35G G56U | 0.154
G34U A71C | 1.72
A35G C48U | 0.132
U33G C66U | 0.21
G34U A61U | 1.13
A35G A41C | 1.31

Variant | self-cleavage
A36C G51C | 0.562
G34U C37G | 1.01
A35G A61U | 0.245
A35G A61C | 0.0992
A35U G42U | 0.109
G34A A43U | 0.18
A35U A36U | 0.524
G34A A59G | 0.2
A36C U62A | 0.0722
A35G C50A | 0.326
A35G C50G | 0.19
U33G A47C | 0.0542
G34C C65A | 1.45
U33C U55G | 0.418
G34A G69C | 0.402
G34A G69A | 0.568
G34A G56A | 0.252
A35U U55A | 0.129
U33G U58G | 0.155
G34C A47C | 1.38
G34U U63C | 0.589
G34U U63G | 0.261
